Results reported in patent US11529425B2, “Immunoconjugates comprising signal regulatory protein alpha” (DINGFU BIOTARGET CO., LTD., priority 2017, dated 2022).

How the values were obtained:
mouse RBCs = assay: Mouse RBC binding, MC38 tumor cells mixed with 15-fold excess of mouse RBCs; settings: MC38 cells with 15-fold excess of mouse RBCs, 20 μg/ml, FIG. 6g/6h
Experimental: Similarly, MC38 tumor cells were mixed with a 15-fold excess of mouse RBCs, and then incubated with 20 μg/ml, a-mPD-L1, mSIRPα-Fc, CV1-Fc, mPD-L1-CV1, mPD-L1-mSIRPα or isotype control (human IgG1) at 4° C. for 30 min. Then the cells were washed to remove unbound proteins and incubated with an anti-hlgG Fc gamma specific PE antibody at 4° C. for 20 min. The cells were analyzed by flow cytometry (Life Technology). The gate of erythrocytes was assessed by anti-mouse RBC antibody (abcam Cat #ab106101). In FIG. 6g, serial numbers of 1, 2, 3 and 4 correspond to isotype control (human IgG1), mSIRPα-Fc, a-mPD-L1 and mPD-L1-mSIRPα. In FIG. 6h, serial numbers of 1, 2, 3 and 4 correspond to isotype control (human IgG1), CV1-Fc, a-mPD-L1 and mPD-L1-CV1.

[1] = reported after being injected into human; cited from earlier work
[2] = test system: A375 cell (expressing CD47) and A375-PD-L1 tumor cells (expressing both CD47 and PD-L1); assay: Tumor binding in excess erythrocyte antigen sink, flow cytometry; settings: 15-fold excess of RBCs, FIG. 6a
Experimental: An important concern about CD47-based therapeutics is the expression of the target on the surface of erythrocyte, which has the potential to act as a large antigen sink and cause hematological toxicity. […] The binding of hu56di-SIRPα to tumor cell in excess human erythrocytes antigen sink was therefore assessed by flow cytometry. A375 cell (expressing CD47) and A375-PD-L1 tumor cells (expressing both CD47 and PD-L1) were mixed with a 15-fold excess of RBCs, and then incubated with 20 μg/ml hu56di-SIRPα, SIRPα-Fc IgG1 or AB6.12 IgG1 or isotype control (human IgG1) at 4° C. for 30 min. Then the cells were washed to remove unbound proteins and incubated with an anti-hlgG Fc gamma specific PE antibody at 4° C. for 20 min. The cells were analyzed by flow cytometry (Life Technology). The gate of erythrocytes was assessed by anti-human CD235a (eBiosciences Cat #12-9987-80).
Then the cells were washed to remove unbound proteins and incubated with an anti-hlgG Fc gamma specific PE antibody at 4° C. for 20 min. The cells were analyzed by flow cytometry (Life Technology). The gate of erythrocytes was assessed by anti-human CD235a (eBiosciences Cat #12-9987-80).

[3] = reported in treated animal; cited from earlier work
human erythrocytes (RBC) = assay: RBC binding in tumor cell / 15-fold excess RBC mix, flow cytometry; settings: tumor cells mixed with 15-fold excess of RBCs, 20 μg/ml, FIG. 6a-6e
CD47-muFc = target: T1, CD47-muFc (Homo sapiens, UniProt Q08722); assay: Binding kinetics by bio-layer inferometry (BLI), Octet K2
T1 construct: made in house; host or cells: transiently transfected FreeStyle 293F cells (HEK293)
Text: The amino acid sequence of the human CD47 extracellular domain (i.e., the 19th residue to the 141th residue in Q08722) was obtained according to the amino acid sequence of human CD47 (Q08722) in the protein database Uniprot. According to the amino acid sequence of the constant region of murine immunoglobulin gamma1 (P01868) in the protein database Uniprot, the amino acid sequence of muFc (i.e., the 112th residue to the 213th residue in P01868) was obtained. The DNAworks Online Tool (helixweb.nih.gov) was used to design the corresponding coding DNA sequence to obtain the CD47-muFc fusion protein gene, and the DNA fragment was obtained by artificial synthesis. The synthetic gene sequences were cloned into commercial vector pcDNA4/myc-HisA (Invitrogen, V863-20) by Fermentas HindIII and EcoRI. The recombinant plasmids were then sequenced for confirmation, thereby obtaining the plasmid DNA of pcDNA4-CD47-muFc. The amino acid sequences of CD47-muFc is as set forth in SEQ ID NO: 61, and the polynucleotide sequence encoding it is as set forth in SEQ ID NO: 62.
Binding kinetics of a hu56di-SIRPα immunoconjugate or control antibodies (SIRPα-Fc IgG1 and AB6.12 IgG1) were determined by the bio-layer inferometry (BLI) method using Octet K2 system (FortéBio). All experiments were performed at 25° C. under a PBS buffer containing 0.5% BSA and 0.5% Tween 20, pH 7.2. CD47-muFc was immobilized onto AHC Biosensors, which were subsequently used in association (with hu56di-SIRPα, SIRPα-Fc IgG1 or AB6.12 IgG1) and dissociation measurements each performed for a time window of 40 seconds and 300 seconds, respectively. After the above steps, the subtracted binding interference data were applied to the calculations of binding constants using the FortéBio analysis software provided with the instrument.

RBC = assay: Binding to fresh RBC diluted 2500 times, flow cytometry; settings: 20 μg ml^−1, FIG. 6f
Experimental: Similarly, fresh RBC cell was diluted 2500 times, then it was incubated with 20 μg ml^−1 isotype control (human IgG1), hu56di-SIRPα, hu56di-CV1, SIRPα-Fc IgG1 and AB6.12 IgG1, respectively. The results were shown in FIG. 6f, in which serial numbers of 1, 2, 3, 4 and 5 correspond to isotype control, hu56di-SIRPα, hu56di-CV1, SIRPα-Fc IgG1 and AB6.12 IgG1.

T1 sequence (Q08722 with tags, fused parts or gaps): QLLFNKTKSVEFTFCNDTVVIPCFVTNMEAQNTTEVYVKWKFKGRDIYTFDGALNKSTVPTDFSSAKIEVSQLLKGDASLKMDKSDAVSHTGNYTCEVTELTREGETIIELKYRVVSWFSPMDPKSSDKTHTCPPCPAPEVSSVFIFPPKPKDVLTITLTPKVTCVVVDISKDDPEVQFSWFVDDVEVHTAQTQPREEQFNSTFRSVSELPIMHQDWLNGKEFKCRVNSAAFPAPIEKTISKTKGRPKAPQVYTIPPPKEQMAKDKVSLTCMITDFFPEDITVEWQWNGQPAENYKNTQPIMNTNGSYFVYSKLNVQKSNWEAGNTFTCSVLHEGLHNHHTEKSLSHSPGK

binding affinity to CD47 (comparison in words) (CD47-muFc; Table 6)	kon (CD47-muFc; association 40 seconds, 25° C.)	kdis (CD47-muFc; dissociation 300 seconds, 25° C.)	Substance	binding to mouse RBC (mouse RBCs)	thrombocytopenia [1]	preference of binding, tumor cells versus RBC [2]	anemia [3]	binding to RBC (MFI) (human erythrocytes (RBC))	binding to RBC (RBC)
–	–	–	mSIRPα-Fc: mouse SIRPα fused via linker to human IgG1-Fc, SEQ ID NO: 152, Group 18	weaker binding to RBC than mPD-L1-CV1	–	–	–	–	–
comparable binding affinity to CD47	650000 M⁻¹ s⁻¹	0.00377 s⁻¹	SIRPα-Fc IgG1: reference homodimer: human SIRPα fused via peptide linker to human IgG1 Fc, SEQ ID NO: 69	–	induced thrombocytopenia	bound tumor cells and RBCs at the same time	anemia has been reported	bind to RBC	weaker binding to RBC than hu56di-CV1 and AB6.12 IgG1
